According to the supplement of paper PMC10065799, “High-throughput profiling of sequence recognition by tyrosine kinases and SH2 domains using bacterial peptide display” (eLife, 2023):

Legend:
[1] = molecular target: c-Src SH2; test: SH2 binding enrichment of the phosphorylated peptide, bacterial display (enrichment ratio); higher = better substrate or ligand; peptides without Tyr show the background
[2] = molecular target: Grb2 SH2 (UniProt P62993); test: as above
[3] = molecular target: SHP2-C SH2; test: as above
[4] = tested on: Fer (mouse); test: phosphorylation enrichment, bacterial display (enrichment ratio); higher = better substrate or ligand; peptides without Tyr show the background
[5] = molecular target: Fyn (UniProt P06241); test: as above
[6] = molecular target: FGFR3 (UniProt P22607); test: as above
[7] = molecular target: Jak2 (UniProt O60674); test: as above
[8] = molecular target: MERTK (UniProt Q12866); test: as above
[9] = molecular target: Fes (UniProt P07332); test: as above
[10] = molecular target: FGFR1 (UniProt P11362); test: as above
[11] = tested on: c-Src; test: as above
[12] = tested on: AncSZ; test: as above
[13] = molecular target: EPHB2 (UniProt P29323); test: as above
[14] = molecular target: Hck (UniProt P08631); test: as above
[15] = molecular target: EPHB1 (UniProt P54762); test: as above
[16] = tested on: c-Abl (mouse); test: as above
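Throughout, for SH2 binding enrichment of the phosphorylated peptide, bacterial display: peptide library displayed on the E. coli surface as eCPX fusions, selected cells deep-sequenced, score is each peptide's frequency after selection divided by its frequency in the input.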
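Throughout, for phosphorylation enrichment, bacterial display: 11-residue human phosphosite peptides and single-mutation variants displayed on the E. coli surface, counted by deep sequencing, each peptide's frequency after selection divided by its frequency in the unselected input library; frequency after pTyr selection over input frequency; kinase dosed for 20-30% of maximal phosphorylation in three min.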

Sequence of Fyn (P06241 whole entry, looked up): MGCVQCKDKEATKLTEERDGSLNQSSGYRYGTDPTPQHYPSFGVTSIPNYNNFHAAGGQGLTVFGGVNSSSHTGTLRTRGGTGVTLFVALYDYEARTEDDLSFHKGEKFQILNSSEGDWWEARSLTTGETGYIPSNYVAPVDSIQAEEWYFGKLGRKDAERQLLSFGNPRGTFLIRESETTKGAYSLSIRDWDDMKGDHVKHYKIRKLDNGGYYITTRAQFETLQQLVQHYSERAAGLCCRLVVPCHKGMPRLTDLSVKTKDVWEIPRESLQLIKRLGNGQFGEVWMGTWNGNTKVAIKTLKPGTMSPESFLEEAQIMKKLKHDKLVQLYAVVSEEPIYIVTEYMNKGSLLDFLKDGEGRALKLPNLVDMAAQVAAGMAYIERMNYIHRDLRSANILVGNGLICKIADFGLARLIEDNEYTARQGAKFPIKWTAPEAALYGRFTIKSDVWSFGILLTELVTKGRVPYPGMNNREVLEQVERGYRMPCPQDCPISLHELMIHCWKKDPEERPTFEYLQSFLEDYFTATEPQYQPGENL
Sequence of EPHB1 (P54762 whole entry, looked up): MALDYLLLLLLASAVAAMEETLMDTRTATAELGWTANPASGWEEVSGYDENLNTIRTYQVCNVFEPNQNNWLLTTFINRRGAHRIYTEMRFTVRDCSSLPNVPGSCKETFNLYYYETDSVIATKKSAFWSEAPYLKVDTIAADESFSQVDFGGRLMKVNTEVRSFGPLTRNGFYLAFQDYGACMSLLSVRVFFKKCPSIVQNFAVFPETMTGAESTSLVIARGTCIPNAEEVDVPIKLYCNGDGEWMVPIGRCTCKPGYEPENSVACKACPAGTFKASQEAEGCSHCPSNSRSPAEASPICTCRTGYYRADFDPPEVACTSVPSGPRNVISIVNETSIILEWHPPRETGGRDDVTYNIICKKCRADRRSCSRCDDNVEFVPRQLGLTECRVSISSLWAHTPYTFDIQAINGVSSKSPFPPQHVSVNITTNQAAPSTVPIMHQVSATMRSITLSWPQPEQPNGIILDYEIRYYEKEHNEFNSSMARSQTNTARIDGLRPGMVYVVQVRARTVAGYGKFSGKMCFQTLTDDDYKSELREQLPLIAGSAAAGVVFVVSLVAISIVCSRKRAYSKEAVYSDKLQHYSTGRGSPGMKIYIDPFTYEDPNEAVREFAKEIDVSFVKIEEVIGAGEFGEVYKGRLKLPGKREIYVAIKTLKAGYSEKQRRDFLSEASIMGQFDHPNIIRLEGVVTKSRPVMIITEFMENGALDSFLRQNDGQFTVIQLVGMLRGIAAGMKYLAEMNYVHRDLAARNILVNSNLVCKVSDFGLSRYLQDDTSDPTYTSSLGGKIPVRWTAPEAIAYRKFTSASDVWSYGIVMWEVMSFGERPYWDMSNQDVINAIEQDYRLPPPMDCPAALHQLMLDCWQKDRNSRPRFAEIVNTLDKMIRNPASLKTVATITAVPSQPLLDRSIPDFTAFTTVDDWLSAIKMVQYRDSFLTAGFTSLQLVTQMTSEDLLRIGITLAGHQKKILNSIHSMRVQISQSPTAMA
Sequence of FGFR1 (P11362 whole entry, looked up): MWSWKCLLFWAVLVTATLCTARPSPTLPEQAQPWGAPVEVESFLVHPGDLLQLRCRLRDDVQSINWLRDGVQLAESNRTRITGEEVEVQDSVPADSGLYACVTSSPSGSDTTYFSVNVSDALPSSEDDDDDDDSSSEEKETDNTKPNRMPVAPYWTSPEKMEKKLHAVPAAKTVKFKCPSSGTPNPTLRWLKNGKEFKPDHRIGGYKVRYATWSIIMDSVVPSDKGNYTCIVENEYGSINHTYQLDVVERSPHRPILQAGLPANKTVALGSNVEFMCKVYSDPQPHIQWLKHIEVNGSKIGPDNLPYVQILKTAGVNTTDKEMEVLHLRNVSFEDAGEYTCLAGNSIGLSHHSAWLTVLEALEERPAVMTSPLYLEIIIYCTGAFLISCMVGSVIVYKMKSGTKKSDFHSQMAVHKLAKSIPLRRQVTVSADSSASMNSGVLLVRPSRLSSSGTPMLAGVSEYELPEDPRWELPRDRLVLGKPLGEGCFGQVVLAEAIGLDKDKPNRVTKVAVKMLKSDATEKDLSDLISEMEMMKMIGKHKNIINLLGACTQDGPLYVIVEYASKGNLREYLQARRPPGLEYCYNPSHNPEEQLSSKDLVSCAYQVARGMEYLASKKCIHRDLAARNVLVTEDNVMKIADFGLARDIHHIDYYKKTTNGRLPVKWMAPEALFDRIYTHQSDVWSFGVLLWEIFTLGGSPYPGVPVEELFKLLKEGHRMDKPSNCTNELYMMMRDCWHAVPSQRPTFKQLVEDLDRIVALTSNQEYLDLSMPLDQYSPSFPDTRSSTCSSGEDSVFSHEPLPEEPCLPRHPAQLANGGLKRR
Sequence of Jak2 (O60674 whole entry, looked up): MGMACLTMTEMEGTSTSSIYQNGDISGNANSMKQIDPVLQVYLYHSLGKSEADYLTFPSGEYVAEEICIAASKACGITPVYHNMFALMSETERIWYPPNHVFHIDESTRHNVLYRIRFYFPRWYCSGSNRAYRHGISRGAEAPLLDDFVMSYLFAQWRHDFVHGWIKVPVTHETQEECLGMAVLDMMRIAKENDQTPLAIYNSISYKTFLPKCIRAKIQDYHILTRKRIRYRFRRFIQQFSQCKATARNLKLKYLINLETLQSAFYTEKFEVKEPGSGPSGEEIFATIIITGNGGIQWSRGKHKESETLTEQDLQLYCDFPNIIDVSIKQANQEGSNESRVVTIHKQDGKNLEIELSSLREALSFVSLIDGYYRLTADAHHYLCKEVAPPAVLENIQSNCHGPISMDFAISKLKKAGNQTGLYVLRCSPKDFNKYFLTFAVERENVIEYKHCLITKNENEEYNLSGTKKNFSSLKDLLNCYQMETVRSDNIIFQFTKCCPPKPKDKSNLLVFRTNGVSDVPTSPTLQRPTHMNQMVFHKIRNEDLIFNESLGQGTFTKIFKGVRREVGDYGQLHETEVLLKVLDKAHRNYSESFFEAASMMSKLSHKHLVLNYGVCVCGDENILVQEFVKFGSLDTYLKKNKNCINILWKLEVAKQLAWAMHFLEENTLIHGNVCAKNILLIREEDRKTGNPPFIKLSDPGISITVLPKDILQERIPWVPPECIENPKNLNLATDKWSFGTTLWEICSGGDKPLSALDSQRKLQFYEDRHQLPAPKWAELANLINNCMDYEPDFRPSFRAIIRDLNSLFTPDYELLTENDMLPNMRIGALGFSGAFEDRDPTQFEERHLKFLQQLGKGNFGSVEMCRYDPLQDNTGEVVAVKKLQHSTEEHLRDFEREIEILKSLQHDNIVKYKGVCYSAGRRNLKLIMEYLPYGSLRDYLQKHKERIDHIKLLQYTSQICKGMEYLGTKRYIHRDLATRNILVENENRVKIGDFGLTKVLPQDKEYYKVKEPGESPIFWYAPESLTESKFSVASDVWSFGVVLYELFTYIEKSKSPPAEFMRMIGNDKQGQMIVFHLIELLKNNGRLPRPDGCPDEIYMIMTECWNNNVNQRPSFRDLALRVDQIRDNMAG
Sequence of Hck (P08631 whole entry, looked up): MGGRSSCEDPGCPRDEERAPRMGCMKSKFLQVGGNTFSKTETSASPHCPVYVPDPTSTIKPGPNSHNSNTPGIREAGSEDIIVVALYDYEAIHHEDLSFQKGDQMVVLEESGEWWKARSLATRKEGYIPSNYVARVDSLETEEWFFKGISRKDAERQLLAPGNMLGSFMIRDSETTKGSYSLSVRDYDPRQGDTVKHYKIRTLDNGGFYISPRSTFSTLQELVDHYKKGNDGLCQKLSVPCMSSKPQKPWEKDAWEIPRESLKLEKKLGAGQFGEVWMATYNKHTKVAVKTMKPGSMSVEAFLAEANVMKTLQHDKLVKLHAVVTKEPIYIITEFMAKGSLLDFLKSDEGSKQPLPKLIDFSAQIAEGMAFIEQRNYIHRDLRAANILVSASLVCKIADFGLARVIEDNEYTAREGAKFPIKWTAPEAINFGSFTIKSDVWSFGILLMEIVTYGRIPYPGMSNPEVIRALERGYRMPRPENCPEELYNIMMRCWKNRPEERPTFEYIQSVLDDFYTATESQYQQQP
Sequence of MERTK (Q12866 whole entry, looked up): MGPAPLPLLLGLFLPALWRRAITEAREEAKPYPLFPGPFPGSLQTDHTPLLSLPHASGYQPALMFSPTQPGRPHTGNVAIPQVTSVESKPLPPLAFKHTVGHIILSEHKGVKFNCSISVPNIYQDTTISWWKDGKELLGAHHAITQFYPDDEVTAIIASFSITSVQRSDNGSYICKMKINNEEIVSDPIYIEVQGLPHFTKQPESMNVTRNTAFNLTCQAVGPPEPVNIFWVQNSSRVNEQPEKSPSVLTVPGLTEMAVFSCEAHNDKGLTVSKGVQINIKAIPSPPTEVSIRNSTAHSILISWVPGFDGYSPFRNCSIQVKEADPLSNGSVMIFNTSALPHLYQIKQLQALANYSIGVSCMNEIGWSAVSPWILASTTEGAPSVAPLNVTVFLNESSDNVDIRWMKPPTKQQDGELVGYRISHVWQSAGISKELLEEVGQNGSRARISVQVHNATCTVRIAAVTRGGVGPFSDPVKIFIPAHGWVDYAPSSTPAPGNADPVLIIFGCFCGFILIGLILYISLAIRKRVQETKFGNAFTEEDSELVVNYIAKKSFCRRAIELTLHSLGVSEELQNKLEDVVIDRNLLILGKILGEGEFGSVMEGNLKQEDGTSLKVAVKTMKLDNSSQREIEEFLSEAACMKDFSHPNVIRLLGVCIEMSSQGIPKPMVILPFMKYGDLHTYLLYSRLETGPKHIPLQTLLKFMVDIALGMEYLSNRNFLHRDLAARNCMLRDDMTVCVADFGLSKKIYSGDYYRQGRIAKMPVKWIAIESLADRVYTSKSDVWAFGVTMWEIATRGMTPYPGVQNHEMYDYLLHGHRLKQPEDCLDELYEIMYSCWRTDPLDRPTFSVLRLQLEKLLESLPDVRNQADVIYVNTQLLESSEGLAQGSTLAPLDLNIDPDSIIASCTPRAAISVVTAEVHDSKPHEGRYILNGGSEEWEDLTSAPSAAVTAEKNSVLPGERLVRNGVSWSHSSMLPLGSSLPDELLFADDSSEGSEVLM

SH2 binding enrichment [1]	SH2 binding enrichment [2]	SH2 binding enrichment [3]	Sequence	phosphorylation enrichment [4]	phosphorylation enrichment [5]	phosphorylation enrichment [6]	phosphorylation enrichment [7]	phosphorylation enrichment [8]	phosphorylation enrichment [9]	phosphorylation enrichment [10]	phosphorylation enrichment [11]	phosphorylation enrichment [12]	phosphorylation enrichment [13]	phosphorylation enrichment [14]	phosphorylation enrichment [15]	phosphorylation enrichment [16]
0.758	1.23	0.875	RSSKTYLKTRS [LPL_Y329_M328T]	0.708	0.593	0.583	0.596	0.985	0.967	0.499	0.856	0.739	0.561	0.706	0.609	0.853
0.765	1.14	1.11	RTLIRYAKLGN [BEST1_Y131_N133K]	0.561	0.848	0.612	1.23	1.02	1.27	0.632	1.02	1.4	0.775	0.849	0.854	1.07
0.367	0.72	0.432	RYVTRYIYNRE [HLA-DQB1_Y62]	0.527	0.701	0.793	1.26	0.773	1.18	0.681	1.09	1.23	0.783	0.739	0.74	0.832
0.525	0.901	0.758	SAEEDYMADAK [KCNT1_Y876]	0.632	0.652	0.843	1.25	0.486	1.36	0.634	0.473	1.3	0.662	0.586	0.733	0.686
0.393	0.967	0.638	SASSSYSRSRS [SRRM4_Y549_R547S]	0.386	0.462	0.46	0.451	0.447	0.482	0.378	0.432	0.555	0.487	0.412	0.275	0.408
0.507	0.787	0.732	SDVCMYRKNTF [SYNE2_Y570_I574T_YF]	0.382	0.395	0.571	0.726	0.4	0.904	0.497	0.4	0.711	0.534	0.456	0.551	0.636
0.41	0.727	0.738	SDVSSYLEGQA [GCG_Y110]	0.775	0.447	0.657	0.769	0.432	0.938	0.456	0.474	0.867	0.76	0.488	0.469	0.678
0.401	0.642	0.535	SEASFYKSLNL [NGEF_Y289_YF]	0.57	0.403	0.692	1.1	0.471	1.27	0.395	0.505	0.98	0.522	0.488	0.589	0.852
0.441	0.749	0.633	SFDLDYDSVQP [MYC_Y16_N11S_YF]	0.748	0.833	0.749	1.3	0.586	1.31	0.674	0.924	1.78	0.911	0.688	0.644	0.811
2.51	1.17	3.81	SFLSYYTSHVQ [NEFL_Y443_P440L]	0.583	0.585	1.01	2.1	2.19	1.1	1.04	0.936	1.01	1.01	0.794	1.26	0.828
0.445	0.733	0.577	SGDDGYAKDAK [TENM4_Y1530]	0.494	0.564	0.562	0.456	0.386	0.741	0.501	0.409	0.836	0.623	0.584	0.454	0.456
0.488	1.02	0.65	SGEKPYKCSEC [ZNF543_Y283]	0.456	0.533	0.551	0.765	0.58	0.829	0.535	0.544	0.664	0.502	0.531	0.5	0.654
0.579	0.791	0.533	SGETKYNPTEA [NBEAL2_Y2748_E2747K]	0.539	0.459	0.594	0.848	0.449	0.868	0.502	0.537	0.767	0.476	0.613	0.558	0.624
0.427	0.871	0.527	SGGSSYGSGGG [KRT1_Y532]	0.397	0.382	0.389	0.537	0.362	0.583	0.411	0.449	0.506	0.396	0.396	0.381	0.633
0.419	0.556	0.551	SGPRRYNIAAL [TTR_Y125_T126N]	0.432	0.377	0.394	0.511	0.411	0.52	0.505	0.409	0.572	0.343	0.43	0.285	0.452
0.618	0.794	0.516	SGPRRYTVAAL [TTR_Y125_I127V]	0.393	0.457	0.423	0.729	0.395	0.496	0.401	0.415	0.51	0.42	0.429	0.409	0.635
